Measured values reported in the supplement of paper PMC12458215.
± gives the uncertainty stated by the source.

Test system: HEK293T
Assay: plasma membrane surface immunostaining intensity (anti-HA, deep receptor scanning) (arbitrary fluorescence units); higher = higher plasma membrane expression

MTEFHLQSQMPSIRLIFRRLSLGRIKPSQSPRCSTSFMVVPSFSIAEHWRRMKGANLSQGMEFELLGLTTDPQLQRLLFVVFLGMYTATLLGNLVMFLLIHVSATLHTPMYSLLKSLSFLDFCYSSTVVPQTLVNFLAKRKVISYFGCMTQMFFYAGFATSECYLIAAMAYDRYAAICNPLLYSTIMSPEVCASLIVGSYSAGFLNSLIHTGCIFSLKFCGAHVVTHFFCDGPPILSLSCVDTSLCEILLFIFAGFNLLSCTLTILISYFLILNTILKMSSAQGRFKAFSTCASHLTAICLFFGTTLFMYLRPRSSYSLTQDRTVAVIYTVVIPVLNPLMYSLRNKDVKKALIKVWGRKTME [OR5AU1]
plasma membrane surface immunostaining intensity (GPCR class: A (Olfactory)): 419 ± 110

MTFRDLLSVSFEGPRPDSSAGGSSAGGGGGSAGGAAPSEGPAVGGVPGGAGGGGGVVGAGSGEDNRSSAGEPGSAGAGGDVNGTAAVGGLVVSAQGVGVGVFLAAFILMAVAGNLLVILSVACNRHLQTVTNYFIVNLAVADLLLSATVLPFSATMEVLGFWAFGRAFCDVWAAVDVLCCTASILSLCTISVDRYVGVRHSLKYPAIMTERKAAAILALLWVVALVVSVGPLLGWKEPVPPDERFCGITEEAGYAVFSSVCSFYLPMAVIVVMYCRVYVVARSTTRSLEAGVKRERGKASEVVLRIHCRGAATGADGAHGMRSAKGHTFRSSLSVRLLKFSREKKAAKTLAIVVGVFVLCWFPFFFVLPLGSLFPQLKPSEGVFKVIFWLGYFNSCVNPLIYPCSSREFKRAFLRLLRCQCRRRRRRRPLWRVYGHHWRASTSGLRQDCAPSSGDAPPGAPLALTALPDPDPEPPGTPEMQAPVASRRKPPSAFREWRLLGPFRRPTTQLRAKVSSLSHKIRAGGAQRAEAACAQRSEVEAVSLGVPHEVAEGATCQAYELADYSNLRETDI [ADRA1D]
plasma membrane surface immunostaining intensity (GPCR class: A): 125 ± 25

MTILLNSSLQRATFFLTGFQGLEGLHGWISIPFCFIYLTVILGNLTILHVICTDATLHGPMYYFLGMLAVTDLGLCLSTLPTVLGIFWFDTREIGIPACFTQLFFIHTLSSMESSVLLSMSIDRYVAVCNPLHDSTVLTPACIVKMGLSSVLRSALLILPLPFLLKRFQYCHSHVLAHAYCLHLEIMKLACSSIIVNHIYGLFVVACTVGVDSLLIFLSYALILRTVLSIASHQERLRALNTCVSHICAVLLFYIPMIGLSLVHRFGEHLPRVVHLFMSYVYLLVPPLMNPIIYSIKTKQIRQRIIKKFQFIKSLRCFWKD [OR51G1]
plasma membrane surface immunostaining intensity (GPCR class: A (Olfactory)): 116 ± 20

MTNQTQMMEFLLVRFTENWVLLRLHALLFSLIYLTAVLMNLVIILLMILDHRLHMAMYFFLRHLSFLDLCLISATVPKSILNSVASTDSISFLGCVLQLFLVVLLAGSEIGILTAMSYDRYAAICCPLHCEAVMSRGLCVQLMALSWLNRGALGLLYTAGTFSLNFYGSDELHQFFCDVPALLKLTCSKEHAIISVSVAIGVCYAFSCLVCIVVSYVYIFSAVLRISQRQRQSKAFSNCVPHLIVVTVFLVTGAVAYLKPGSDAPSILDLLVSVFYSVAPPTLNPVIYCLKNKDIKSALSKVLWNVRSSGVMKR [OR14K1]
plasma membrane surface immunostaining intensity (GPCR class: A (Olfactory)): 155 ± 35

MTNSSFFCPVYKDLEPFTYFFYLVFLVGIIGSCFATWAFIQKNTNHRCVSIYLINLLTADFLLTLALPVKIVVDLGVAPWKLKIFHCQVTACLIYINMYLSIIFLAFVSIDRCLQLTHSCKIYRIQEPGFAKMISTVVWLMVLLIMVPNMMIPIKDIKEKSNVGCMEFKKEFGRNWHLLTNFICVAIFLNFSAIILISNCLVIRQLYRNKDNENYPNVKKALINILLVTTGYIICFVPYHIVRIPYTLSQTEVITDCSTRISLFKAKEATLLLAVSNLCFDPILYYHLSKAFRSKVTETFASPKETKAQKEKLRCENNA [GPR171]
plasma membrane surface immunostaining intensity (GPCR class: A): 455 ± 49

MTPLCLNCSVLPGDLYPGGARNPMACNGSAARGHFDPEDLNLTDEALRLKYLGPQQTELFMPICATYLLIFVVGAVGNGLTCLVILRHKAMRTPTNYYLFSLAVSDLLVLLVGLPLELYEMWHNYPFLLGVGGCYFRTLLFEMVCLASVLNVTALSVERYVAVVHPLQARSMVTRAHVRRVLGAVWGLAMLCSLPNTSLHGIRQLHVPCRGPVPDSAVCMLVRPRALYNMVVQTTALLFFCLPMAIMSVLYLLIGLRLRRERLLLMQEAKGRGSAAARSRYTCRLQQHDRGRRQVTKMLFVLVVVFGICWAPFHADRVMWSVVSQWTDGLHLAFQHVHVISGIFFYLGSAANPVLYSLMSSRFRETFQEALCLGACCHRLRPRHSSHSLSRMTTGSTLCDVGSLGSWVHPLAGNDGPEAQQETDPS [NMUR1]
plasma membrane surface immunostaining intensity (GPCR class: A): 2770 ± 700

MTPNSTGEVPSPIPKGALGLSLALASLIITANLLLALGIAWDRRLRSPPAGCFFLSLLLAGLLTGLALPTLPGLWNQSRRGYWSCLLVYLAPNFSFLSLLANLLLVHGERYMAVLRPLQPPGSIRLALLLTWAGPLLFASLPALGWNHWTPGANCSSQAIFPAPYLYLEVYGLLLPAVGAAAFLSVRVLATAHRQLQDICRLERAVCRDEPSALARALTWRQARAQAGAMLLFGLCWGPYVATLLLSVLAYEQRPPLGPGTLLSLLSLGSASAAAVPVAMGLGDQRYTAPWRAAAQRCLQGLWGRASRDSPGPSIAYHPSSQSSVDLDLN [GPBAR1]
plasma membrane surface immunostaining intensity (GPCR class: A): 5940 ± 84

MTPTDFTSPIPNMADDYGSESTSSMEDYVNFNFTDFYCEKNNVRQFASHFLPPLYWLVFIVGALGNSLVILVYWYCTRVKTMTDMFLLNLAIADLLFLVTLPFWAIAAADQWKFQTFMCKVVNSMYKMNFYSCVLLIMCISVDRYIAIAQAMRAHTWREKRLLYSKMVCFTIWVLAAALCIPEILYSQIKEESGIAICTMVYPSDESTKLKSAVLTLKVILGFFLPFVVMACCYTIIIHTLIQAKKSSKHKALKVTITVLTVFVLSQFPYNCILLVQTIDAYAMFISNCAVSTNIDICFQVTQTIAFFHSCLNPVLYVFVGERFRRDLVKTLKNLGCISQAQWVSFTRREGSLKLSSMLLETTSGALSL [CCR9]
plasma membrane surface immunostaining intensity (GPCR class: A): 4060 ± 290

MTRKNYTSLTEFVLLGLADTLELQIILFLFFLVIYTLTVLGNLGMILLIRIDSQLHTPMYFFLANLSFVDVCNSTTITPKMLADLLSEKKTISFAGCFLQMYFFISLATTECILFGLMAYDRYAAICRPLLYSLIMSRTVYLKMAAGAFAAGLLNFMVNTSHVSSLSFCDSNVIHHFFCDSPPLFKLSCSDTILKESISSILAGVNIVGTLLVILSSYSYVLFSIFSMHSGEGRHRAFSTCASHLTAIILFYATCIYTYLRPSSSYSLNQDKVASVFYTVVIPMLNPLIYSLRSKEVKKALANVISRKRTSSFL [OR5F1]
plasma membrane surface immunostaining intensity (GPCR class: A (Olfactory)): 192 ± 87

MTSGSVFFYILIFGKYFSHGGGQDVKCSLGYFPCGNITKCLPQLLHCNGVDDCGNQADEDNCGDNNGWSLQFDKYFASYYKMTSQYPFEAETPECLVGSVPVQCLCQGLELDCDETNLRAVPSVSSNVTAMSLQWNLIRKLPPDCFKNYHDLQKLYLQNNKITSISIYAFRGLNSLTKLYLSHNRITFLKPGVFEDLHRLEWLIIEDNHLSRISPPTFYGLNSLILLVLMNNVLTRLPDKPLCQHMPRLHWLDLEGNHIHNLRNLTFISCSNLTVLVMRKNKINHLNENTFAPLQKLDELDLGSNKIENLPPLIFKDLKELSQLNLSYNPIQKIQANQFDYLVKLKSLSLEGIEISNIQQRMFRPLMNLSHIYFKKFQYCGYAPHVRSCKPNTDGISSLENLLASIIQRVFVWVVSAVTCFGNIFVICMRPYIRSENKLYAMSIISLCCADCLMGIYLFVIGGFDLKFRGEYNKHAQLWMESTHCQLVGSLAILSTEVSVLLLTFLTLEKYICIVYPFRCVRPGKCRTITVLILIWITGFIVAFIPLSNKEFFKNYYGTNGVCFPLHSEDTESIGAQIYSVAIFLGINLAAFIIIVFSYGSMFYSVHQSAITATEIRNQVKKEMILAKRFFFIVFTDALCWIPIFVVKFLSLLQVEIPGTITSWVVIFILPINSALNPILYTLTTRPFKEMIHRFWYNYRQRKSMDSKGQKTYAPSFIWVEMWPLQEMPPELMKPDLFTYPCEMSLISQSTRLNSYS [RXFP1]
plasma membrane surface immunostaining intensity (GPCR class: A): 165 ± 19

MTSNFSQPVVQLCYEDVNGSCIETPYSPGSRVILYTAFSFGSLLAVFGNLLVMTSVLHFKQLHSPTNFLIASLACADFLVGVTVMLFSMVRTVESCWYFGAKFCTLHSCCDVAFCYSSVLHLCFICIDRYIVVTDPLVYATKFTVSVSGICISVSWILPLTYSGAVFYTGVNDDGLEELVSALNCVGGCQIIVSQGWVLIDFLLFFIPTLVMIILYSKIFLIAKQQAIKIETTSSKVESSSESYKIRVAKRERKAAKTLGVTVLAFVISWLPYTVDILIDAFMGFLTPAYIYEICCWSAYYNSAMNPLIYALFYPWFRKAIKLILSGDVLKASSSTISLFLE [TAAR8]
plasma membrane surface immunostaining intensity (GPCR class: A): 352 ± 170

MTSTCTNSTRESNSSHTCMPLSKMPISLAHGIIRSTVLVIFLAASFVGNIVLALVLQRKPQLLQVTNRFIFNLLVTDLLQISLVAPWVVATSVPLFWPLNSHFCTALVSLTHLFAFASVNTIVVVSVDRYLSIIHPLSYPSKMTQRRGYLLLYGTWIVAILQSTPPLYGWGQAAFDERNALCSMIWGASPSYTILSVVSFIVIPLIVMIACYSVVFCAARRQHALLYNVKRHSLEVRVKDCVENEDEEGAEKKEEFQDESEFRRQHEGEVKAKEGRMEAKDGSLKAKEGSTGTSESSVEARGSEEVRESSTVASDGSMEGKEGSTKVEENSMKADKGRTEVNQCSIDLGEDDMEFGEDDINFSEDDVEAVNIPESLPPSRRNSNSNPPLPRCYQCKAAKVIFIIIFSYVLSLGPYCFLAVLAVWVDVETQVPQWVITIIIWLFFLQCCIHPYVYGYMHKTIKKEIQDMLKKFFCKEKPPKEDSHPDLPGTEGGTEGKIVPSYDSATFP [GPR101]
plasma membrane surface immunostaining intensity (GPCR class: A): 3010 ± 110

MTTSLDTVETFGTTSYYDDVGLLCEKADTRALMAQFVPPLYSLVFTVGLLGNVVVVMILIKYRRLRIMTNIYLLNLAISDLLFLVTLPFWIHYVRGHNWVFGHGMCKLLSGFYHTGLYSEIFFIILLTIDRYLAIVHAVFALRARTVTFGVITSIVTWGLAVLAALPEFIFYETEELFEETLCSALYPEDTVYSWRHFHTLRMTIFCLVLPLLVMAICYTGIIKTLLRCPSKKKYKAIRLIFVIMAVFFIFWTPYNVAILLSSYQSILFGNDCERSKHLDLVMLVTEVIAYSHCCMNPVIYAFVGERFRKYLRHFFHRHLLMHLGRYIPFLPSEKLERTSSVSPSTAEPELSIVF [CCR3]
plasma membrane surface immunostaining intensity (GPCR class: A): 391 ± 99

MTTSPILQLLLRLSLCGLLLQRAETGSKGQTAGELYQRWERYRRECQETLAAAEPPSGLACNGSFDMYVCWDYAAPNATARASCPWYLPWHHHVAAGFVLRQCGSDGQWGLWRDHTQCENPEKNEAFLDQRLILERLQVMYTVGYSLSLATLLLALLILSLFRRLHCTRNYIHINLFTSFMLRAAAILSRDRLLPRPGPYLGDQALALWNQALAACRTAQIVTQYCVGANYTWLLVEGVYLHSLLVLVGGSEEGHFRYYLLLGWGAPALFVIPWVIVRYLYENTQCWERNEVKAIWWIIRTPILMTILINFLIFIRILGILLSKLRTRQMRCRDYRLRLARSTLTLVPLLGVHEVVFAPVTEEQARGALRFAKLGFEIFLSSFQGFLVSVLYCFINKEVQSEIRRGWHHCRLRRSLGEEQRQLPERAFRALPSGSGPGEVPTSRGLSSGTLPGPGNEASRELESYC [GIPR]
plasma membrane surface immunostaining intensity (GPCR class: B): 6435 ± 30
